Experimental findings from the supplement of paper PMC5998384 are described below.

Data set [1] relates to HeLa Kyoto. Put plainly: melting temperature (median over replicates), in situ; higher = more thermally stable.
Data set [2] has as its system HeLa Kyoto. Put plainly: solubility in G1/S (NP-40 vs SDS abundance) (log2 ratio); higher = more soluble. The conditions noted are these: cell cycle stage: G1/S.
In data set [3] the test system is HeLa Kyoto. Put plainly: solubility change mitosis vs G1/S (difference of NP-40 vs SDS log2 ratios) (log2 ratio difference); higher = more soluble in mitosis.
Data set [4] concerns HeLa Kyoto. Put plainly: thermal stability score vs G1/S (z-score of summed log2 fold changes over temperatures); higher = more thermally stable than in G1/S.
[5] abbreviates: cell cycle stage: early G1 (4.5 h after nocodazole release).
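Wherever melting temperature (median over replicates), in situ is given: HeLa Kyoto cells synchronized by double thymidine or nocodazole block, proteins quantified by TMT10plex mass spectrometry, three independent biological replicates.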
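Wherever solubility change mitosis vs G1/S (difference of NP-40 vs SDS log2 ratios) is given: synchronized HeLa Kyoto cells (double thymidine block for G1/S, nocodazole release for mitosis), protein amounts in NP-40 versus SDS lysates quantified by mass spectrometry, three biological replicates.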
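Wherever solubility in G1/S (NP-40 vs SDS abundance) is given: HeLa Kyoto cells arrested at G1/S by double thymidine block, proteins quantified by TMT10plex mass spectrometry in mild NP-40 versus SDS extracts, three biological replicates.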
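Wherever thermal stability score vs G1/S (z-score of summed log2 fold changes over temperatures) is given: synchronized HeLa Kyoto cells, proteins quantified by TMT10plex mass spectrometry, three biological replicates, mitosis taken 0.5 h after nocodazole release, G1/S directly after double thymidine block.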

Take “MSLVAEAFVSQIAAAEPWPENATLYQQLKGEQILLSDNAASLAVQAFLQMCNLPIKVVCRANAEYMSPSGKVPFIHVGNQVVSELGPIVQFVKAKGHSLSDGLEEVQKAEMKAYMELVNNMLLTAELYLQWCDEATVGEITHARYGSPYPWPLNHILAYQKQWEVKRKMKAIGWGKKTLDQVLEDVDQCCQALSQRLGTQPYFFNKQPTELDALVFGHLYTILTTQLTNDELSEKVKNYSNLLAFCRRIEQHYFEDRGKGRLS [MTX2]”: the melting temperature with HeLa Kyoto [1] (cell cycle stage: G1/S) turned out to be 51.4 °C; with HeLa Kyoto [1] (cell cycle stage: mitosis), 52.2 °C. Moreover, the “solubility in G1/S (log2)” value with HeLa Kyoto [2] came to 0.186. In addition, the “solubility change mitosis (log2)” value in the data set on HeLa Kyoto [3] stood at 0.0491. Besides, the thermal stability score with HeLa Kyoto [4] (setting [5]) was -0.339; in the data set on HeLa Kyoto [4] (cell cycle stage: mitosis), -0.187.
Regarding “MSMEDPFFVVKGEVQKAVNTAQGLFQRWTELLQDPSTATREEIDWTTNELRNNLRSIEWDLEDLDETISIVEANPRKFNLDATELSIRKAFITSTRQVVRDMKDQMSTSSVQALAERKNRQALLGDSGSQNWSTGTTDKYGRLDRELQRANSHFIEEQQAQQQLIVEQQDEQLELVSGSIGVLKNMSQRIGGELEEQAVMLEDFSHELESTQSRLDNVMKKLAKVSHMTSDRRQWCAIAILFAVLLVVLILFLVL [STX6]”, the melting temperature was 53.5 °C with HeLa Kyoto [1] (cell cycle stage: G1/S) and 52.9 °C in the data set with HeLa Kyoto [1] (cell cycle stage: mitosis). Further, the “solubility in G1/S (log2)” value in the data set with HeLa Kyoto [2] was -0.167. The “solubility change mitosis (log2)” value in the data set with HeLa Kyoto [3] was -0.118. For the same sequence, the thermal stability score with HeLa Kyoto [4] (setting [5]) was 1.56; with HeLa Kyoto [4] (cell cycle stage: mitosis) it was -0.616.
Turning to “MSNTTVVPSTAGPGPSGGPGGGGGGGGGGGGTEVIQVTNVSPSASSEQMRTLFGFLGKIDELRLFPPDDSPLPVSSRVCFVKFHDPDSAVVAQHLTNTVFVDRALIVVPYAEGVIPDEAKALSLLAPANAVAGLLPGGGLLPTPNPLTQIGAVPLAALGAPTLDPALAALGLPGANLNSQSLAADQLLKLMSTVDPKLNHVAAGLVSPSLKSDTSSKEIEEAMKRVREAQSLISAAIEPDKKEEKRRHSRSRSRSRRRRTPSSSRHRRSRSRSRRRSHSKSRSRRRSKSPRRRRSHSRERGRRSRSTSKTRDKKKEDKEKKRSKTPPKSYSTARRSRSASRERRRRRSRSGTRSPKKPRSPKRKLSRSPSPRRHKKEKKKDKDKERSRDERERSTSKKKKSKDKEKDRERKSESDKDVKQVTRDYDEEEQGYDSEKEKKEEKKPIETGSPKTKECSVEKGTGDSLRESKVNGDDHHEEDMDMSD [SRSF11]”, the melting temperature is 49.7 °C in the data set with HeLa Kyoto [1] (cell cycle stage: G1/S) and 50.4 °C in the data set with HeLa Kyoto [1] (cell cycle stage: mitosis). Besides, the “solubility in G1/S (log2)” value in the data set on HeLa Kyoto [2] was -0.739. The “solubility change mitosis (log2)” value in the data set on HeLa Kyoto [3] is 0.175. Moreover, the thermal stability score came to 1.04 in the data set on HeLa Kyoto [4] (setting [5]) and 3.54 with HeLa Kyoto [4] (cell cycle stage: mitosis).
Turning to “MSNYSVSLVGPAPWGFRLQGGKDFNMPLTISSLKDGGKAAQANVRIGDVVLSIDGINAQGMTHLEAQNKIKGCTGSLNMTLQRASAAPKPEPVPVQKGEPKEVVKPVPITSPAVSKVTSTNNMAYNKAPRPFGSVSSPKVTSIPSPSSAFTPAHATTSSHASPSPVAAVTPPLFAASGLHANANLSADQSPSALSAGKTAVNVPRQPTVTSVCSETSQELAEGQRRGSQGDSKQQNGPPRKHIVERYTEFYHVPTHSDASKKRLIEDTEDWRPRTGTTQSRSFRILAQITGTEHLKESEADNTKKANNSQEPSPQLASSVASTRSMPESLDSPTSGRPGVTSLTAAAAFKPVGSTGVIKSPSWQRPNQGVPSTGRISNSATYSGSVAPANSALGQTQPSDQDTLVQRAEHIPAGKRTPMCAHCNQVIRGPFLVALGKSWHPEEFNCAHCKNTMAYIGFVEEKGALYCELCYEKFFAPECGRCQRKILGEVISALKQTWHVSCFVCVACGKPIRNNVFHLEDGEPYCETDYYALFGTICHGCEFPIEAGDMFLEALGYTWHDTCFVCSVCCESLEGQTFFSKKDKPLCKKHAHSVNF [PDLIM5]”, the melting temperature in the data set with HeLa Kyoto [1] (cell cycle stage: G1/S) worked out at 52.1 °C; in the data set with HeLa Kyoto [1] (cell cycle stage: mitosis) it was 52.6 °C. For the same sequence, the “solubility in G1/S (log2)” value in the data set with HeLa Kyoto [2] stood at 0.0686. Further, the “solubility change mitosis (log2)” value with HeLa Kyoto [3] was 0.0095. The thermal stability score is -0.121 with HeLa Kyoto [4] (setting [5]) and 0.334 in the data set with HeLa Kyoto [4] (cell cycle stage: mitosis).
For “MSPAPDAAPAPASISLFDLSADAPVFQGLSLVSHAPGEALARAPRTSCSGSGERESPERKLLQGPMDISEKLFCSTCDQTFQNHQEQREHYKLDWHRFNLKQRLKDKPLLSALDFEKQSSTGDLSSISGSEDSDSASEEDLQTLDRERATFEKLSRPPGFYPHRVLFQNAQGQFLYAYRCVLGPHQDPPEEAELLLQNLQSRGPRDCVVLMAAAGHFAGAIFQGREVVTHKTFHRYTVRAKRGTAQGLRDARGGPSHSAGANLRRYNEATLYKDVRDLLAGPSWAKALEEAGTILLRAPRSGRSLFFGGKGAPLQRGDPRLWDIPLATRRPTFQELQRVLHKLTTLHVYEEDPREAVRLHSPQTHWKTVREERKKPTEEEIRKICRDEKEALGQNEESPKQGSGSEGEDGFQVELELVELTVGTLDLCESEVLPKRRRRKRNKKEKSRDQEAGAHRTLLQQTQEEEPSTQSSQAVAAPLGPLLDEAKAPGQPELWNALLAACRAGDVGVLKLQLAPSPADPRVLSLLSAPLGSGGFTLLHAAAAAGRGSVVRLLLEAGADPTVQDSRARPPYTVAADKSTRNEFRRFMEKNPDAYDYNKAQVPGPLTPEMEARQATRKREQKAARRQREEQQQRQQEQEEREREEQRRFAALSDREKRALAAERRLAAQLGAPTSPIPDSAIVNTRRCWSCGASLQGLTPFHYLDFSFCSTRCLQDHRRQAGRPSS [ANKZF1]”, the melting temperature with HeLa Kyoto [1] (cell cycle stage: G1/S) was found to be 49.7 °C; in the data set with HeLa Kyoto [1] (cell cycle stage: mitosis) it was 50.1 °C. Further, the “solubility in G1/S (log2)” value with HeLa Kyoto [2] amounted to 0.0804. Further, the “solubility change mitosis (log2)” value in the data set on HeLa Kyoto [3] was -0.104. Also, the results for the thermal stability score in the data set on HeLa Kyoto [4] (setting [5]) and with HeLa Kyoto [4] (cell cycle stage: mitosis) were 0.638 and 1.02, respectively.
